B1: 306VQIVYK311 hexapeptide (peptide)
peptide: Ac-VQIVYK-NH2
notes: also called amyloid motif; source: synthetic peptide (Genscript)
B2: R2R3-N296Δ peptide fragment (peptide, UniProt P10636-8 295-311, looked up)
peptide: Ac-DIKHVPGGGSVQIVYK-NH2
notes: source: synthetic peptide (Genscript)
B3: R2R3-S305N peptide fragment (peptide, UniProt P10636-8 295-311, looked up)
peptide: Ac-DNIKHVPGGGNVQIVYK-NH2
notes: as for B2
B4: R2R3-P301S peptide fragment (peptide, UniProt P10636-8 295-311, looked up)
peptide: Ac-DNIKHVSGGGSVQIVYK-NH2
notes: as for B2
B5: R2R3-P301L peptide fragment (peptide, UniProt P10636-8 295-311, looked up)
peptide: Ac-DNIKHVLGGGSVQIVYK-NH2
notes: as for B2
B6: R2R3-G303V peptide fragment (peptide, UniProt P10636-8 295-311, looked up)
peptide: Ac-DNIKHVPGVGSVQIVYK-NH2
notes: as for B2
B7: R2R3-V300I peptide fragment (peptide, UniProt P10636-8 295-311, looked up)
peptide: Ac-DNIKHIPGGGSVQIVYK-NH2
notes: as for B2

Target: the molecule itself
Assay: ThT fluorescence aggregation assay; spontaneous self-assembly of disaggregated synthetic peptides, 200 µM, PBS, 25 µM ThT, room temperature, no inducer; the R2R3 peptides of Fig. 4 also looked at by TEM

Binding result, binds:
B1, B2, B3, B4, B5, B6, B7

From PMC6555816, “Tau local structure shields an amyloid-forming motif and controls aggregation propensity” (Nature Communications, 2019)
